{"source": "paper PMC10706272", "about": "“Improving the Thermostability of Thermomyces lanuginosus Lipase by Restricting the Flexibility of N-Terminus and C-Terminus Simultaneously via the 25-Loop Substitutions” (International Journal of Molecular Sciences, 2023)", "tested_on": "CCCCCCCCCCCCCCCC(=O)Oc1ccc([N+](=O)[O-])cc1", "experiment": "initial-rate hydrolysis of pNPP, p-nitrophenol release, Michaelis-Menten fit", "format": "biochemical, Thermomyces lanuginosus", "conditions": "37 °C, pH 9.0, Tris-HCl 100 mM, apparent Km, pNPP 0.25-10 mM", "text": "initial-rate hydrolysis of pNPP, p-nitrophenol release, Michaelis-Menten fit on TLL (Thermomyces lanuginosus lipase)", "data": [{"substance": "TLL (Thermomyces lanuginosus lipase) (Thermomyces lanuginosus; A52P)", "values": [{"measurement": "Km", "value": "240 ± 20", "unit": "µM"}, {"measurement": "Vmax", "value": 503, "unit": "µmol/min/mg"}, {"measurement": "kcat", "value": "1036 ± 4", "unit": "s⁻¹"}, {"measurement": "kcat/Km", "value": "4.383e+06 ± 42000", "unit": "M⁻¹ s⁻¹"}]}, {"substance": "TLL (Thermomyces lanuginosus lipase) (Thermomyces lanuginosus; D49N)", "values": [{"measurement": "Km", "value": "220 ± 20", "unit": "µM"}, {"measurement": "Vmax", "value": 396, "unit": "µmol/min/mg"}, {"measurement": "kcat", "value": "777 ± 5", "unit": "s⁻¹"}, {"measurement": "kcat/Km", "value": "3.503e+06 ± 31000", "unit": "M⁻¹ s⁻¹"}]}, {"substance": "TLL (Thermomyces lanuginosus lipase) (Thermomyces lanuginosus; D49R)", "values": [{"measurement": "Km", "value": "360 ± 10", "unit": "µM"}, {"measurement": "Vmax", "value": 828, "unit": "µmol/min/mg"}, {"measurement": "kcat", "value": "1900 ± 21", "unit": "s⁻¹"}, {"measurement": "kcat/Km", "value": "5.24e+06 ± 118000", "unit": "M⁻¹ s⁻¹"}]}, {"substance": "TLL (Thermomyces lanuginosus lipase) (Thermomyces lanuginosus; K46S)", "values": [{"measurement": "Km", "value": "310 ± 20", "unit": "µM"}, {"measurement": "Vmax", "value": 681, "unit": "µmol/min/mg"}, {"measurement": "kcat", "value": "1380 ± 22", "unit": "s⁻¹"}, {"measurement": "kcat/Km", "value": "4.48e+06 ± 157000", "unit": "M⁻¹ s⁻¹"}]}, {"substance": "TLL (Thermomyces lanuginosus lipase) (Thermomyces lanuginosus; P51S)", "values": [{"measurement": "Km", "value": "290 ± 30", "unit": "µM"}, {"measurement": "Vmax", "value": 668, "unit": "µmol/min/mg"}, {"measurement": "kcat", "value": "1354 ± 9", "unit": "s⁻¹"}, {"measurement": "kcat/Km", "value": "4.747e+06 ± 28000", "unit": "M⁻¹ s⁻¹"}]}]}
